The target in test [1] is T1, mature human TGF-beta 1 (human, UniProt P01137 279-390).
T1 construct: Bought recombinant protein (Peprotech); also called TGFb1; TGFB1
Description: SPR Biacore T200, human TGF-beta amine-coupled (~20 RU), E. coli derived Fab as analyte; heterogeneous fit, component 2 (ka2; believed unoccluded). The method, then: (§1) Human TGF-β isoforms 1, 2, and 3 (Peprotech) were immobilised on CMS Series S chip via amine coupling chemistry on Flowcell 2, 3 and 4 (respectively) to a level of approximately 20 RU. HBS-EP buffer (10 mM HEPES pH 7.4, 0.15 M NaCl, 3 mM EDTA, 0.05% Surfactant P20, GE Healthcare) was used as the running buffer. […] The surface was regenerated by 2×10 μL injection of 10 mM HCl at a flowrate of 10 uL/min.
(§2) Background subtraction binding curves were analysed using the T200 evaluation software (version 1.0; GE Healthcare) following standard procedures. Kinetic parameters were determined using heterogeneous fitting algorithm with RI=0), as described in Example 3, and the values are provided in Table 4.
For orientation: In SPR one partner is held on a chip, and binding of the other changes the refractive index at the surface.

Test [2] has as its target T2, mature human TGF-beta 2 (human, UniProt P61812 303-414).
T2 construct: also called TGFb2; TGFB2
T2 sequence: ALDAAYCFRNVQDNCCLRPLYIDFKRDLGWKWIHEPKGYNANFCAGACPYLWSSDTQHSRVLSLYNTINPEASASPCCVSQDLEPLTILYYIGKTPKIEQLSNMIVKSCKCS
The description is as above. As for the experimental part:
as §1, §2

The target in test [3] is T3, mature human TGF-beta 3 (human, UniProt P10600 301-412).
T3 construct: also called TGFb3; TGFB3
T3 sequence: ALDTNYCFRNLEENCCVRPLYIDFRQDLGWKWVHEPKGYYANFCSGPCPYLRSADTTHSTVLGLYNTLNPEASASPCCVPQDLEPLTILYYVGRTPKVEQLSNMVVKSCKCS
The description is as above. The method, then:
as §1, §2

Test [4] has as its target TGF-beta produced and activated by BxPC3 cells. Nature of the test: cell-based or functional assay.
The target in test [5] is T1, mature human TGF-beta 1. Nature of the test: SPR Biacore T200, human TGF-beta amine-coupled (~20 RU), E. coli derived Fab as analyte; heterogeneous fit, component 1 (ka1; believed occluded). The method, then:
as §1, §2

For test [6], the target named is T2, mature human TGF-beta 2. The test is described as above. As for the experimental part: as §1, §2
The target in test [7] is T3, mature human TGF-beta 3. The test is described as above. The method, then: as §1, §2
Test [8] concerns the target T1, mature human TGF-beta 1. Description: SPR Biacore T200, human TGF-beta amine-coupled (~20 RU), E. coli derived Fab as analyte; heterogeneous fit, component 1 (KD1; believed occluded). The method, then:
as §1, §2

The target of test [9] is T1, mature human TGF-beta 1. Description: SPR Biacore T200, human TGF-beta amine-coupled (~20 RU), E. coli derived Fab as analyte; heterogeneous fit, component 2 (KD2; believed unoccluded). As for the experimental part: as §1, §2
The target of test [10] is T2, mature human TGF-beta 2. Described as above. The method, then: as §1, §2
For test [11], the target named is T3, mature human TGF-beta 3. Described as above. The method, then: as §1, §2
Test [12] has as its target T1, mature human TGF-beta 1. Nature of the test: cell-based or functional assay.
Test [13] addresses T2, mature human TGF-beta 2. Description: cell-based or functional assay.
Test [14] concerns the target T3, mature human TGF-beta 3. Description: cell-based or functional assay.
In test [15] the target is T1, mature human TGF-beta 1. Nature of the test: SPR Biacore T200, human TGF-beta amine-coupled (~20 RU), E. coli derived Fab as analyte; heterogeneous fit, component 2 (kd2; believed unoccluded). As for the experimental part: as §1, §2
Test [16] concerns the target T2, mature human TGF-beta 2. The description is as above. The method, then: as §1, §2
Test [17] deals with T3, mature human TGF-beta 3. Described as above. As for the experimental part: as §1, §2
Test [18] has as its target T1, mature human TGF-beta 1. Nature of the test: SPR Biacore T200, human TGF-beta amine-coupled (~20 RU), E. coli derived Fab as analyte; heterogeneous fit, component 1 (kd1; believed occluded). The method, then:
as §1, §2

The target in test [19] is T2, mature human TGF-beta 2. The description is as above. The method, then: as §1, §2
For test [20], the target named is T3, mature human TGF-beta 3. The description is as above. The method, then:
as §1, §2

The term kon denotes the rate constant with which the complex forms. As a reminder, the Kd is the concentration at which binding is half-saturated. Read a high Kd as weaker binding. As usually defined, the koff is the rate constant with which the complex falls apart. Higher therefore signals a short-lived complex.

T1 sequence (P01137 279-390 limits assumed): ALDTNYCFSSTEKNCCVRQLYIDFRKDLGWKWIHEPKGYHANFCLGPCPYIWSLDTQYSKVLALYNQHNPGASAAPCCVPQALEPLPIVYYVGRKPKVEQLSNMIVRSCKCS

B1: humanised antibody 4856 Fab graft gL3gH13 (Fab, V domains shown)
VH: EVQLVESGGGLVKPGGSLRLSCAASGFSLSSYDMSWVRQAPGKGLEWIGIIYGGSGSTWYASWAKGRFTISRDSAKNSVYLQMNSLRAEDTAVYYCARGRDAGAGGSRNGYSLWGQGTLVTVSS
VL: AYDMTQSPSTLSASVGDRVTITCQASESIYSGLAWYQQKPGKAPKLLIYAASDLASGVPSRFSGSGSGTEYTLTISSLQPDDFATYYCQQTWTDGGIDNPFGGGTKVEIKR
notes: Human gamma-1 CH1 (G1m17) and human C-kappa (K1m3); also called 4856gL3gH13
With B1, the kon is 704000 M⁻¹ s⁻¹ with mature human TGF-beta 1 [1]; 904000 M⁻¹ s⁻¹ in the test with mature human TGF-beta 2 [2]; 2e+06 M⁻¹ s⁻¹ with mature human TGF-beta 3 [3]; 74900 M⁻¹ s⁻¹ with mature human TGF-beta 1 [5]; 57700 M⁻¹ s⁻¹ with mature human TGF-beta 2 [6]; 93200 M⁻¹ s⁻¹ with mature human TGF-beta 3 [7]. Moreover, the “Geometric mean IC50, BxPC3 and HEK-Blue TGF-beta reporter gene co-culture assay” value in test [4] is 3.95 nM. Further, the Kd with mature human TGF-beta 1 [8] was determined as 9.48 nM; in the test with mature human TGF-beta 1 [9] it was 0.0808 nM; in the test with mature human TGF-beta 2 [10], 0.196 nM; in the test with mature human TGF-beta 3 [11] it was 1.72 nM. The “Geometric mean IC50, HEK-Blue TGF-beta reporter gene assay” value in the test with mature human TGF-beta 1 [12] stood at 0.074 nM; with mature human TGF-beta 2 [13], 0.01 nM; with mature human TGF-beta 3 [14], 0.475 nM. The koff in the test with mature human TGF-beta 1 [15] came out at 5.56e-05 s⁻¹; with mature human TGF-beta 2 [16], 0.00017 s⁻¹; in the test with mature human TGF-beta 3 [17], 0.00339 s⁻¹; with mature human TGF-beta 1 [18], 0.000709 s⁻¹; with mature human TGF-beta 2 [19], 0.000211 s⁻¹; in the test with mature human TGF-beta 3 [20], 0.00146 s⁻¹.

These data come from patent US20200407436A1 (published 2020).
